Assays:
[1] = biological target: T1, human GUCY2C (guanylyl cyclase C) (human, UniProt P25092 24-1073); assay: flow cytometry on T84 cells
T1 construct: also called huGUCY2C; GC-C
Protocol: One hour cell binding studies by flow cytometry were carried out at physiologically relevant temperature (37° C.) on GUCY2CxCD3 bispecific antibodies (GUCY2CxCD3 biAb-1 and GUCY2CxCD3_biAb-2), known reference GUCY2CxCD3 bispecific antibody (biAb), and Null×CD3 control molecules. The goal was to characterize and quantify specific, cell binding for GUCY2CxCD3_biAb-1 and 2. […] Maximum binding of GUCY2CxCD3 biAb-1 and 2 was higher than reference biAb.

[2] = biological target: T1, human GUCY2C (guanylyl cyclase C); assay: cell-based or functional assay
human CD3 [3] = biological target: T2, human CD3 (human, UniProt P07766 23-207); assay: flow cytometry on primary T cells
T2 construct: also called CD3 epsilon; CD3 on primary human T cells

human CD3 [4] = biological target: T2, human CD3; assay: flow cytometry based Intellicyt assay on human pan T cells, MFI, 4PL fit; lower end of the printed range 108-112 nM
Protocol: The affinity of CD3_spFv-1 to T cells was measured by flow cytometry based Intellicyt assay. Briefly, pan T cells were isolated from PBMC from healthy donors. Cells were incubated with titrating amounts test molecules for 1 hour, then washed. […] Cells were then washed and resuspended in 0.10% pluronic acid containing Sytox Green, then immediately analyzed in a flow cytometer. Median fluorescent intensity (MFI) was recorded (on RL1-A). The log 10 of the molecule concentration was plotted against the MFI. Best fit curves were evaluated using a 4PL algorithm (log(agonist) vs. response—Variable slope) in GraphPad Prism 9.0.

cynomolgus monkey CD3 = biological target: T3, cynomolgus monkey CD3 (cynomolgus monkey, UniProt Q95LI5 22-198); assay: not described at this place; the sentence refers to 'example 2'
T3 construct: whole, on cells; also called cynomolgus CD3

[5] = biological target: T1, human GUCY2C (guanylyl cyclase C); assay: flow cytometry on CHO-huGUCY2C cells
Protocol: Three (3) cell lines, Chinese hamster ovary (CHO) cell line, CHO transfected with cyno GUCY2C, and CHO transfected with human GUCY2C, were incubated with a titrating dose of GUCY2C_mAb for 60 min at 37° C., washed twice, then incubated with AF647 labeled anti human secondary for 30 minutes at 4° C. Cells were washed twice again, resuspended and acquired in a flow cytometer. Specific antibody binding was assessed in the RL1H channel for each cell line. Data presented as signal/background where background is secondary only.

T1 sequence (P25092 other isoform, or with tags, fused parts or gaps limits assumed): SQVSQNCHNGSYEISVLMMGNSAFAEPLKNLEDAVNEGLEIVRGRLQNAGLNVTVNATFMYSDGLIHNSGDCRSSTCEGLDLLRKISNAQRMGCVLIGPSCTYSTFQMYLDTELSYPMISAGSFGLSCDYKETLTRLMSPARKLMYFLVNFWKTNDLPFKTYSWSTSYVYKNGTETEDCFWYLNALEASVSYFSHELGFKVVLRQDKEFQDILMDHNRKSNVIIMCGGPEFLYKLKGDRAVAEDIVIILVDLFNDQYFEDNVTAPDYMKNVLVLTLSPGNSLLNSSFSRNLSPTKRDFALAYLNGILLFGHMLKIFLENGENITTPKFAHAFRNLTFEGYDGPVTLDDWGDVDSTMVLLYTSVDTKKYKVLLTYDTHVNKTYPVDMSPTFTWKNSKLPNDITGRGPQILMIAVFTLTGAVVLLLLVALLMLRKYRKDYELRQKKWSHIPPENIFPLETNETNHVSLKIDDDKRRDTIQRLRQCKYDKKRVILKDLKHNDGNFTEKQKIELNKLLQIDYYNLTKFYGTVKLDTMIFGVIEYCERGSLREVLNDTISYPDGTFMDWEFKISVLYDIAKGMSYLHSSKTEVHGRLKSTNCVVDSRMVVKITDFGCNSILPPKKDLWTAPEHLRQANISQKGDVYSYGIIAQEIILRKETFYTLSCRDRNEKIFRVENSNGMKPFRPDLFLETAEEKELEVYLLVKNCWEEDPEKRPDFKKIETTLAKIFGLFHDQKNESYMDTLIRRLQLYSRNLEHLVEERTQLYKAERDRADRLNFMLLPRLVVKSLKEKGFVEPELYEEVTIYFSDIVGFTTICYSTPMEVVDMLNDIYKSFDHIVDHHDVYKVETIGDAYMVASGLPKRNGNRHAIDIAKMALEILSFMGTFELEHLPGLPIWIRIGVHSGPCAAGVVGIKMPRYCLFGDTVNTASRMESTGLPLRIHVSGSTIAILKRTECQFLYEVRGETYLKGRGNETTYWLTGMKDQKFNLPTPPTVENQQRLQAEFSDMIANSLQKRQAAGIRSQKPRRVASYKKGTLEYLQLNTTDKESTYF
T2 sequence (P07766 23-207 limits assumed): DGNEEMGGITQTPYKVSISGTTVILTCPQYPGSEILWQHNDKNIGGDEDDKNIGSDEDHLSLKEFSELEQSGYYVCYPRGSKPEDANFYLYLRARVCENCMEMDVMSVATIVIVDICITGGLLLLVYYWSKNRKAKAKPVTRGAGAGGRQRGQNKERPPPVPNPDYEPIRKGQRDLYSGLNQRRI
T3 sequence (Q95LI5 22-198): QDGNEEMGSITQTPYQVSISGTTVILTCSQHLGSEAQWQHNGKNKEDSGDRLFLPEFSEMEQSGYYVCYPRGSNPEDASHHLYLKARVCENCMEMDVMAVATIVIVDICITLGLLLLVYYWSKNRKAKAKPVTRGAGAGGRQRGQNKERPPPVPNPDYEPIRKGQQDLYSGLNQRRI

B1: GUCY2CxCD3_biAb-1 (bispecific antibody, human IgG1, kappa, L234A L235A)
heavy: QVQLQESGPGLVKPSETLSLTCTVSGASISHYYWSWIRRPAGKGLEWIGRIYTSGSTNYNPSLKSRVTVSVDTSKNQFSLKLSSVTAADTAVYYCARDRYTGYFDLWGRGTLVTVSSASTKGPSVFPLAPSSKSTSGGTAALGCLVKDYFPEPVTVSWNSGALTSGVHTFPAVLQSSGLYSLSSVVTVPSSSLGTQTYICNVNHKPSNTKVDKKVEPKSCDKTHTCPPCPAPEAAGGPSVFLFPPKPKDTLMISRTPEVTCVVVSVSHEDPEVKFNWYVDGVEVHNAKTKPREEQYNSTYRVVSVLTVLHQDWLNGKEYKCKVSNKALPAPIEKTISKAKGQPREPQVYTLPPSREEMTKNQVSLSCAVKGFYPSDIAVEWESNGQPENNYKTTPPVLDSDGSFFLVSKLTVDKSRWQQGNVFSCSVMHEALHNRFTQKSLSLSPGK
light: not shown
chain: EIVLTQSPATLSASPGERVTLSCSASSSVSYMNWYQQKPGCAPRRWIYDSSKLASGVPARFSGSGSGRDYTLTISSLEPEDFAVYYCQQWSRNPPTFGGGTKVEIKGGGSGGSGGCPPCGGSGGQVQLVQSGAEVKKPGSSVKVSCKASGYTFTRSTMHWVKQAPGQGLEWIGYINPSSAYTNYNQKFQGRVTLTADKSTSTAYMELSSLRSEDTAVYYCASPQVHYDYAGFPYWGCGTLVTVSSEPKSSDKTHTCPPCPAPEAAGGPSVFLFPPKPKDTLMISRTPEVTCVVVSVSHEDPEVKFNWYVDGVEVHNAKTKPREEQYNSTYRVVSVLTVLHQDWLNGKEYKCKVSNKALPAPIEKTISKAKGQPREPQVYTLPPSREEMTKNQVSLWCLVKGFYPSDIAVEWESNGQPENNYKTTPPVLDSDGSFFLYSKLTVDKSRWQQGNVFSCSVMHEALHNHYTQKSLSLSPGK
notes: HC1/LC1 form the GUCY2C Fab arm (IgG1, L234A/L235A/D265S, hole T366S/L368A/Y407V); HC2 is CD3_spFv-1 (VL2-linker-VH2) fused to IgG1 Fc (L234A/L235A/D265S, knob T366W); also called GUCY2CxCD3 bisp-Ab1; GUCY2C-CD3-bisp-Abl
- EC50 [1]: 12 nM
- Tumor killing EC50 (nM), HT-55 [2]: 0.8 nM
- Tumor killing EC50 (nM), LS1034 [2]: 0.04 nM
- EC50 (human CD3 [3]): 108 nM

B2: CD3_spFv-1 (scFv)
scFv: EIVLTQSPATLSASPGERVTLSCSASSSVSYMNWYQQKPGCAPRRWIYDSSKLASGVPARFSGSGSGRDYTLTISSLEPEDFAVYYCQQWSRNPPTFGGGTKVEIKGGGSGGSGGCPPCGGSGGQVQLVQSGAEVKKPGSSVKVSCKASGYTFTRSTMHWVKQAPGQGLEWIGYINPSSAYTNYNQKFQGRVTLTADKSTSTAYMELSSLRSEDTAVYYCASPQVHYDYAGFPYWGCGTLVTVSS
notes: also called CD3 arm of GUCY2CxCD3_biAb-1; anti-CD3 spFv
- EC50 (human CD3 [4]): 108 to 112 nM
- binding result (cynomolgus monkey CD3): no binding

B3: GUCY2C_mAb (antibody, V domains shown)
VH: QVQLQESGPGLVKPSETLSLTCTVSGASISHYYWSWIRRPAGKGLEWIGRIYTSGSTNYNPSLKSRVTVSVDTSKNQFSLKLSSVTAADTAVYYCARDRYTGYFDLWGRGTLVTVSS
VL: not shown
notes: From Ablexis Kappa mice, so a kappa light chain; also called GUCYC2_mAb
- EC50 [5]: 4.6 nM

From patent US20250066510A1 (Janssen / Centocor, published 2025)
